Assay results from article PMC9482650, “Quantitative fragmentomics allow affinity mapping of interactomes” (Nature Communications, 2022).

Key:
Experiment in all cases: holdup assay
Design in all cases: key: below the threshold = too weak to quantify, mostly under pKd 3.1 to 4
[1] = target: GOPC, Q9HD26
[2] = target: Inadl_2, Q8NI35
[3] = target: NHERF4_1, Q86UT5-2
[4] = target: T1, TJP3_3, O95049
T1 sequence (O95049 375-456, limits assumed, looked up): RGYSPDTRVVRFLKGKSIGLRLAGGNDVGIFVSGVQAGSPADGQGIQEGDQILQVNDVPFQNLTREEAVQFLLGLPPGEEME

[5] = target: DLG1_3, Q12959
[6] = target: DLG4_3, P78352
[7] = target: T2, HTRA4, P83105
T2 sequence (P83105 378-476, limits assumed, looked up): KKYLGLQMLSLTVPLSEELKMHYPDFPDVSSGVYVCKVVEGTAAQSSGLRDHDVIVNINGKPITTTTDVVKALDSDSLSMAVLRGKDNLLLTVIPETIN

[8] = target: Inadl_8, Q8NI35
[9] = target: DLG4_1, P78352
[10] = target: T3, NHERF3_1, Q5T2W1
T3 sequence (Q5T2W1 4-100, limits assumed, looked up): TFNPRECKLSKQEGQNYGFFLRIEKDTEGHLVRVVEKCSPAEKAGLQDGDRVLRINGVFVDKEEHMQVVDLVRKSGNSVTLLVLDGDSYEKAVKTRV

[11] = target: GRIP2_3, Q9C0E4
[12] = target: LNX1_1, Q8TBB1
[13] = target: T4, PDZD2_2, O15018
T4 sequence (O15018 329-429, limits assumed, looked up): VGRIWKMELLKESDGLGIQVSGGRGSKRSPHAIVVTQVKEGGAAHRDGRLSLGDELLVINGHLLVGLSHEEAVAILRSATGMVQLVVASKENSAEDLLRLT

[14] = target: GORASP2, Q9H8Y8
[15] = target: FRMPD2_1, Q68DX3
[16] = target: MAST2, Q6P0Q8
[17] = target: LNX1_3, Q8TBB1
[18] = target: T5, DLG3_3, Q92796
T5 sequence (Q92796 374-475, limits assumed, looked up): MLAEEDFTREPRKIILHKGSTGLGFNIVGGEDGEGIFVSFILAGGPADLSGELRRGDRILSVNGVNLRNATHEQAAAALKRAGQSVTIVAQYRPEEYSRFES

[19] = target: DLG4_2, P78352
[20] = target: DLG2_2, Q15700
[21] = target: NHERF4_4, Q86UT5
[22] = target: T6, DFNB31_3, Q9P202
T6 sequence (Q9P202 811-907, limits assumed, looked up): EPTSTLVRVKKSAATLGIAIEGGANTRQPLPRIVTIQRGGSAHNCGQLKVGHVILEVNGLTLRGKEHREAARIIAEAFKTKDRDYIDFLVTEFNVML

[23] = target: T7, APBA2_1, Q99767
T7 sequence (Q99767 563-664, limits assumed, looked up): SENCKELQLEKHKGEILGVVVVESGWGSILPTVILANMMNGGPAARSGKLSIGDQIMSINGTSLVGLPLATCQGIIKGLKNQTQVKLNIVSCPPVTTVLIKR

[24] = target: SCRIB_2, Q14160
[25] = target: MAGI2_5, Q86UL8
[26] = target: SCRIB_1, Q14160
[27] = target: T8, GRIP1_7, Q9Y3R0
T8 sequence (Q9Y3R0 999-1096, limits assumed, looked up): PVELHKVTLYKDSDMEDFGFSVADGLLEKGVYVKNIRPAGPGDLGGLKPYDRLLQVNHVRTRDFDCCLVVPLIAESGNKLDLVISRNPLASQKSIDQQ

[28] = target: SNX27, Q96L92
[29] = target: MAGI2_3, Q86UL8
[30] = target: FRMPD4, Q14CM0
[31] = target: LIMK2, P53671
[32] = plain residues with an end cap or a label only (N-terminal biotin on a linker: ttds)
[33] = plain residues with an end cap or a label only (N-terminal biotin on a linker: ado-ado)

LIMK2, P53671, sequence (P53671 143-248): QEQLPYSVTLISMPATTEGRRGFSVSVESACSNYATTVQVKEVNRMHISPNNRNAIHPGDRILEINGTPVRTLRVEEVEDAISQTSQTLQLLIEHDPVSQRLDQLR
Inadl_8, Q8NI35, sequence (Q8NI35 1425-1530): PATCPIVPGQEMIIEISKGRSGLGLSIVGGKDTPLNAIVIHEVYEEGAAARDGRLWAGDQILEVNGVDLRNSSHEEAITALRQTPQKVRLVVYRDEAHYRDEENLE
NHERF4_1, Q86UT5-2, sequence (Q86UT5 other isoform, or with tags, fused parts or gaps): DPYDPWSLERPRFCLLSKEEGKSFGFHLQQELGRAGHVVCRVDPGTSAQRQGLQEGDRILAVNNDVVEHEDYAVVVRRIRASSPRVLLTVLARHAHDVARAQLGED
SCRIB_2, Q14160, sequence (Q14160 857-960): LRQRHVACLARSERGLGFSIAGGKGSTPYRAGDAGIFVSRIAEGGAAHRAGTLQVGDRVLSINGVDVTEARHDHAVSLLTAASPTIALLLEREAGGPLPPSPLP
NHERF4_4, Q86UT5, sequence (Q86UT5 464-550): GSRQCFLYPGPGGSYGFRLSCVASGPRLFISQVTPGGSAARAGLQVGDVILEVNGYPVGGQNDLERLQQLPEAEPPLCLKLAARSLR
GRIP2_3, Q9C0E4, sequence (Q9C0E4 238-339): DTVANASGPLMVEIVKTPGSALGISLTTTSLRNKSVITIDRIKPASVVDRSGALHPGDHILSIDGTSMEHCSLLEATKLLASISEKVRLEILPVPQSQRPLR
DLG1_3, Q12959, sequence (Q12959 457-571): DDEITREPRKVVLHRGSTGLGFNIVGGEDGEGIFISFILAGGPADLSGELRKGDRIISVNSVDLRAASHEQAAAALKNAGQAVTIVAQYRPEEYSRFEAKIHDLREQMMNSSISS
DLG4_1, P78352, sequence (P78352 62-152): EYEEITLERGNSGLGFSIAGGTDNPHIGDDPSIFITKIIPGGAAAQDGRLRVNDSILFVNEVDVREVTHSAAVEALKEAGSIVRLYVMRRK
DLG2_2, Q15700, sequence (Q15700 189-283): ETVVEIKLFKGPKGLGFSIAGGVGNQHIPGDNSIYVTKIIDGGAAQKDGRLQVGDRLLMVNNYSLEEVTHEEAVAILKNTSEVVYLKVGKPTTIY
MAGI2_3, Q86UL8, sequence (Q86UL8 600-682): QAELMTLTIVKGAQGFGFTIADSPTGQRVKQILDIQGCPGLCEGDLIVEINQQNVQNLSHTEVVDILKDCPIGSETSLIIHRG
DLG4_2, P78352, sequence (P78352 155-259): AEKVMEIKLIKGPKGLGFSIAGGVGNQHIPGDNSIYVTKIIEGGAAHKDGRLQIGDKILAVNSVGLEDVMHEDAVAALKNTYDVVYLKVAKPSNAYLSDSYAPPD
Inadl_2, Q8NI35, sequence (Q8NI35 238-335): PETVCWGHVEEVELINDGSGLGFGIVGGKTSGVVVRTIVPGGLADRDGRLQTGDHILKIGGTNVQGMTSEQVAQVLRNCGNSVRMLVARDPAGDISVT
LNX1_1, Q8TBB1, sequence (Q8TBB1 261-371): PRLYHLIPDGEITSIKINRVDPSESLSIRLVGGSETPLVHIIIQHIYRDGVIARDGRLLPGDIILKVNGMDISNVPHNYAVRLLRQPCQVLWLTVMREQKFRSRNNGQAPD
MAGI2_5, Q86UL8, sequence (Q86UL8 915-1017): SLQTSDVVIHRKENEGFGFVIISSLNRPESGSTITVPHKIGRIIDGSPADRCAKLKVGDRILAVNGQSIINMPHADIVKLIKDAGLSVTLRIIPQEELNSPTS
DLG4_3, P78352, sequence (P78352 306-403): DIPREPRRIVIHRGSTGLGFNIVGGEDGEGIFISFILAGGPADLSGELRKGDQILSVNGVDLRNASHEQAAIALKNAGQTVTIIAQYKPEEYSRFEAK
FRMPD2_1, Q68DX3, sequence (Q68DX3 770-861): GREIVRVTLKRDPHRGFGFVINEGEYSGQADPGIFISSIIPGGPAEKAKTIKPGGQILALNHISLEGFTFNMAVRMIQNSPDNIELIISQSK
MAST2, Q6P0Q8, sequence (Q6P0Q8 1099-1202): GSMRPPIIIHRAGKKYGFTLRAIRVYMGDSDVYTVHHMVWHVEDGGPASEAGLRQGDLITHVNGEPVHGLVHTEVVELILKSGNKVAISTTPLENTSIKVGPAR
SCRIB_1, Q14160, sequence (Q14160 718-814): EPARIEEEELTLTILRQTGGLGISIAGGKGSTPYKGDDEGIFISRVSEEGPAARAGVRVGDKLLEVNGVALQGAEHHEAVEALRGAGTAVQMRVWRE
FRMPD4, Q14CM0, sequence (Q14CM0 67-160): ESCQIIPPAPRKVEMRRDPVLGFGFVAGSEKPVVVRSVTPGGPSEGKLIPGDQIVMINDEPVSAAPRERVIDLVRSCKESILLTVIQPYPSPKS
LNX1_3, Q8TBB1, sequence (Q8TBB1 500-596): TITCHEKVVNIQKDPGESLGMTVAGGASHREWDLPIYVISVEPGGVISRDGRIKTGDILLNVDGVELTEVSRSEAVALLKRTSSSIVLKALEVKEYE

B1: HPV31-E6, P17386 (peptide)
chain: SRRPRTETQV
pKd [1, 32]: below the threshold
pKd [2, 32]: below the threshold
pKd [3, 32]: below the threshold
pKd [4, 32]: below the threshold
pKd [5, 32]: 4.6
pKd [6, 32]: 5.1
pKd [7, 32]: below the threshold
pKd [8, 32]: below the threshold
pKd [9, 32]: 5.02
pKd [10, 32]: 4.32
pKd [11, 32]: below the threshold
pKd [12, 32]: below the threshold
pKd [13, 32]: 3.7
pKd [14, 32]: 3.65
pKd [15, 32]: below the threshold
pKd [16, 32]: 5.23
pKd [17, 32]: below the threshold
pKd [18, 32]: 5.1
pKd [19, 32]: 5.36
pKd [20, 32]: 5.37
pKd [21, 32]: below the threshold
pKd [22, 32]: below the threshold
pKd [23, 32]: below the threshold
pKd [24, 32]: 4.38
pKd [25, 32]: 3.89
pKd [26, 32]: 4.6
pKd [27, 32]: below the threshold
pKd [28, 32]: 4.64
pKd [29, 32]: 4.1
pKd [30, 32]: below the threshold
pKd [31, 32]: below the threshold

B2: ACOT6, Q3I5F7 (peptide)
chain: GKKSVKHSKI
pKd [1, 33]: 3.68
pKd [2, 33]: below the threshold
pKd [3, 33]: below the threshold
pKd [4, 33]: below the threshold
pKd [5, 33]: below the threshold
pKd [6, 33]: 3.68
pKd [7, 33]: 3.7
pKd [8, 33]: 3.88
pKd [9, 33]: below the threshold
pKd [10, 33]: 3.66
pKd [11, 33]: below the threshold
pKd [12, 33]: below the threshold
pKd [13, 33]: 4.03
pKd [14, 33]: below the threshold
pKd [15, 33]: below the threshold
pKd [16, 33]: 4.03
pKd [17, 33]: below the threshold
pKd [18, 33]: below the threshold
pKd [19, 33]: 3.88
pKd [20, 33]: 3.56
pKd [21, 33]: 3.76
pKd [22, 33]: 3.85
pKd [23, 33]: below the threshold
pKd [24, 33]: below the threshold
pKd [25, 33]: below the threshold
pKd [26, 33]: 3.82
pKd [27, 33]: below the threshold
pKd [28, 33]: below the threshold
pKd [29, 33]: below the threshold
pKd [30, 33]: below the threshold
pKd [31, 33]: below the threshold

B3: CTNNB1, P35222 (peptide)
chain: NQLAWFDTDL
pKd [1, 32]: below the threshold
pKd [2, 32]: below the threshold
pKd [3, 32]: below the threshold
pKd [4, 32]: below the threshold
pKd [5, 32]: below the threshold
pKd [6, 32]: below the threshold
pKd [7, 32]: below the threshold
pKd [8, 32]: below the threshold
pKd [9, 32]: below the threshold
pKd [10, 32]: 3.66
pKd [11, 32]: below the threshold
pKd [12, 32]: 3.47
pKd [13, 32]: below the threshold
pKd [14, 32]: below the threshold
pKd [15, 32]: below the threshold
pKd [16, 32]: 6.04
pKd [17, 32]: below the threshold
pKd [18, 32]: below the threshold
pKd [19, 32]: below the threshold
pKd [20, 32]: below the threshold
pKd [21, 32]: 4.04
pKd [22, 32]: below the threshold
pKd [23, 32]: below the threshold
pKd [24, 32]: 3.57
pKd [25, 32]: below the threshold
pKd [26, 32]: 4.86
pKd [27, 32]: 3.63
pKd [28, 32]: 4.91
pKd [29, 32]: below the threshold
pKd [30, 32]: 4.28
pKd [31, 32]: below the threshold
